According to the DeepSol protein solubility set:

Test: soluble on expression in E. coli; label from the status in PepcDB or PDB records

Sequence	soluble on expression in E. coli
MMDDILKQIKAGEVSGVQFKERILDKYDIACELVAFSNSHGGKLVVGIKDKTGETNALSYSEVQETTNLLSDIASENVVPSILIKIDTVEVEDGNLVVATVKEGLNKPYHDNKGIVWVKNGADKRKVFDNAELAEMMTDCGSFAPDEAGVRDATVNDLDATTIKQFLGNRFERVLDKKGLTGDAFNEASLDMICSAIAKGHDCEKILRNLRFIRPDGTLTVAAMLLFGKYTQRWMPMMTAKCICFAGNSVGSKVFRDKVNDADMEGNLLHQYDTIMDFFTRNLHNVQVGDEFNSMGKLEIPYTSLVEFTVNSLVHRSLNMKAPVRIFIFDNRVEIHSPGALPNGLTIDDIKAGTSMPRNTFLFNNAIYLLPYTGVGSGITRALDEDINVTFMNNDKAQEFVITVWRGESNQVEDLDTGLRHSDTDLDTGLRHSDTDLDTKRVTLTNKEKDIVNFCSVPRTTKEILDRIGVSMHSKNRERYITSLVAAGYLQMTNPDNPTASNQKYKKVNKR	not soluble
MSLEIPKDFFVKDGEPNVKIVVGSEGAAMDVVSAADIAAAIGSLLYTEKEVKVSDVSVVVRKDITYDPDDIPVFNNFYPNKNQVFIVGQDSLKDVEAWWNGSAFSANYTASVWNGGTYSGTYSLELENVANYGKYDLTGELTLKGITLEEIANNEVNFKDIEDFKDMTVKINSAVLNITLAVYNWTKTVKAKDPITGVTTTKVKWTLSNVQPGAGYSISDTISKGVGEGVTLKVFDKEFPIMFVGKAISKNAIVDAADSFVYGTYHGTDFYDQGQEVEFDGYKVEILDIDIQRNEGHHHHHH	not soluble
RVCPRILLECKKDSDCLAECVCLEHGYCG	soluble
TLYDKVWDQHKVTTLPNGQDQLFVGLHLIHEVTSPQAFGMIKERGLEVARPDLTHATVDHIVPTANQDRPYSDDAAETMMAELEENVRDAGIQFSDPTTGDQGIVHVIGPEQGITQPGKTIVCGDSHTSTHGAFGALAFGIGTSQIRDVLATQTIAMEKQKV	not soluble
MSLIRSMTAYARREIKGEWGSATWEMRSVNQRYLETYFRLPEQFRSLEPVVRERIRSRLTRGKVECTLRYEPDVSAQGELILNEKLAKQLVTAANWVKMQSDEGEINPVDILRWPGVMAAQEQDLDAIAAEILAALDGTLDDFIIARETEGQALKVLIEQRLEGVTAEVAKVRAHMPEILQWQRERLIAKLEDAQVQLENNRLEQELVLLAQRIDVAEELDRLEAHAKETYNILKKKEAVGRRLDFMMQEFNRESNTLASKSINAEVTNSAIELKVLIEQMREQIQNIEEGHHHHHH	soluble
MGSDKIHHHHHHMLVAERQQKIVEIVNMRSSIRVSELSDIFSVTEETIRRDLEKLEKEHKLSRSHGGAVSIQQKESEIHFSEREITNVIEKKAIAHEAAKYVKSGDRIILDASTTAWYMAKILPDIELTVITNSMKAAIELSNKENISVISTGGILLEKSLSFAGPLAERSLETYHVNKTFLSCKGFDVHNGMSDSNEWQALLKKRMIERSDQTILMADSSKWGNREFSHIASLQDVSRLITDSGLDPASVKALEDKKVKVTAVPLSKRG	not soluble
MNLDYLKETYHLTKTESQILYYLDQQSTNAADLSIREVAKHCFSSPSSIIRLAKKLNLSGYNELIYKLKEAHFSQPIPFETAPSFETTNEFCRLLAKHKSHLFVILGHDFSRHLAAYISEVFNFHGIPSITTAYTHSINSQNNQNFLFIILSHSGEEKYLKETALLAKEKKHPIISFVGAKNSTLGRLADLVFSTDSYSPFSTSVAQPQMFFGQTLITFEALICAYLNHEDSIPISHKNK	not soluble
MCMSLRESAAAADAGAGPLAGSARDLLAQWNGGEDVWVFAYGSLIWRPDFAWQERRLATVRGYHRSLLWSHDHRGSPDNPGLVFGLDRGGCCRGVAFRVAGRDVPEVFQALWHREMSGGAYKPRWLRCHTGQAPVRGLAFVPDRRCRHYAGALSDELLIRAVRQAVGRSGACLDYVRETHRALNEHGIVDWRLGALVDRLAQPLEHHHHHH	not soluble
MRLFILLSCLLAWVLAAPYIDQEDALRVLNAYLEQFGPGSDRVYYVAEDDHGSMKRGLGPRPLRFG	not soluble
MSLKDPLSEALVRLNQKVDSELIPEIKRFPLIGISTDISPKRTAVNTAYVQSVILSGGIPYMIPVTDNVEILRQIVSRLDGIVFTGGEDIQPMYYGDLPYEKLEEVSPARDTFDLMVLKMAADRNIPILGICRGLQLMNVAFGGTLYQDLPTQHPSSVNHRQKESGTTTTHPISIIKGSKLADITGQEVLQVNTFHHQAIQKLAPGFKITAWAPDSIAEAIEAYPIRQMIGVQFHPEIFTAAGDTTMHKLFKFLVNKADEGHHHHHH	not soluble
MFDPKQFDELANKLFATLPTSLQNFEKDIQQKFKEVLQSTFSRMDLVTREEFDVQCKVLARTREKLEQLQHQLEDFIKRQEVKNNK	not soluble
MSLAYISLKSNLENPKYSLNVAHLYGDLMNTYGDNGNILMLKYVGEKLGAEMTFNIVSLGDTFAKEDYDLVFWGGGQDYEQEIIADQSLIDLSAPLKDYIESEKPLLAICGGYQMLGQYYVNSEGTKIQGTGILGHYTENLRTDRFIGDIETHNEEFGETYYGFENHSGITYLSDDEKPLGTVVYGGGNNPDDQTEGLIYKNTFGTYFHGPILSRNARLAYRLVTTALYQKYGEEIQLPAFEEILADEDKGQQIGDLKRKVEKEGHHHHHH	soluble
MGNTLGLAPMGTLPRRSPRREEPLPNPGSFDELHRLCKDVFPAQMEGVKLVVNKVLSSHFQVAHTIHMSALGLPGYHLHAAYAGDWQLSPTEVFPTVVGDMDSSGSLNAQVLLLLAERLRAKAVFQTQQAKFLTWQFDGEYRGDDYTATLTLGNPDLIGESVIMVAHFLQSLTHRLVLGGELVYHRRPGEEGAILTLAGKYSAVHWVATLNVGSGGAHASYYHRANEQVQVGVEFEANTRLQDTTFSFGYHLTLPQANMVFRGLVDSNWCVGAVLEKKMPPLPVTLALGAFLNHWRNRFHCGFSITVG	soluble
MRKAERVRKTNETDIELAFTIDGGGQADIKTDVPFMTHMLDLFTKHGQFDLSINAKGDVDIDDHHTTEDIGICLGQALLEALGDKKGIKRYGSAFVPMDEALAQVVIDLSNRPHLEMRADFPAAKVGTFDTELVHEFLWKLALEARMNLHVIVHYGTNTHHMIEAVFKALGRALDEATTIDPRVKGIPSTKGMLLEHHHHHH	not soluble
MSLARARMKERGVEVSDIAELVFFLQKKYHPDLTIDECTLNVNRVLAKREVQNAILTGIELDVLAEQKKLSEPLQTMLEIDESLYGVDEVLAFSIVNIYGSIGFTNYGYIDKEKPGILKRLNDKSTGECHTFLDDIVGAISAAASSRLAHREGHHHHHH	not soluble
MGSDKIHHHHHHMSAIERITKAAHLIDMNDIIREGNPTLRTVAEEVTFPLSDQEIILGEKMMQFLKHSQDPVMAEKMGLRGGVGLAAPQLDISKRIIAVLVPNIVEEGETPQEAYDLEAIMYNPKIVSHSVQDAALGEGEGCLSVDRNVPGYVVRHARVTVDYFDKDGEKHRIKLKGYNSIVVQHEIDHINGIMFYDRINEKDPFAVKDGLLILE	soluble
MNQLLKTLRDFGLSSYEASAYVALVSSGETTAREVSRKAGIPRTKVYEVLNRLVEKGFAEVQPGSPAIFRAIEPAKIAARMQRDFNERLGKMLKAFEELKMDEKSESKLVWISRGRWAVENRLREFLRENDKVMVFCITENFASVLSEVRGEHRVLLYQKFRVPENIREFRVLDLGRIKKAKDGFVARFAEIIEGTEAGKPEILIISEGSSILALSHGEEYLALSIHLPLIVALQKRMFDTLYESYC	not soluble
MPGYYKISHSWEYRRRTCQDDVLLEAVITSDTNLNTEKTLLQWLNDKNKNKGTNTVDYKDITCWYYGGVWLHYAINNNALSLYMHSSGEDAFDSLNYCAYEIAKTFYKNHSDISILWIEHPHKRNKLKET	not soluble
SDEVYLYSDATTSKIARTVTQKLGFSKASSSGTRLHRGYVEEATLEDKPSQTSHIVFVVHGIGQKMDQGRIIKNTAMMREAARKMEEKHFSNHATHVEFLPVEWRSKLTLDGDTVDSITPDKVRGLRDMLNSSAMDIMYYTSPLYRDELVKGLQQELNRLYSLFCSRNPDFEEKGGKVSIVSHSLGCVITYDIMMGWNPGGLYEQLLQKEEELPDERWMSYEERHLLDELYITKRRLREIEDRLHGLKAPSISQTPALKFKVENFFCMGSPLAVFLALRGIRPGNSGSQDHILPREICNRLLNIFHPTDPVAYRLEPLILKHYSNISPVQIHWYNTSNPLPYEHMKPNFLNPAKEPTSVSDSENIAAIPSPVTSPVLSRRHYGESITNIGKASILGAASIGKGLGGMLFSRFGRSSASQPSEPSKDSLEDDKKPSASPSTTTVATQTLPHSGSGFLDSAYFRLQESFFYLPQLLFPENVMQSKDDSLVELEHRIDFELREGLVESRYWSAVTSHTAYWSSLDVALFLLTFMYKHEHDTEAKPSLGSL	soluble
MGSDKIHHHHHHMPRPRRTQISLEDTPYYHCCSRVVRRAFLCGDDTYSGKNYDHRRTWVESLLFELEAIFAIDVAAFAVMSNHLHLVLRVDIDSANGWTDREVLEQWHKLFKGDELTQKFAKGELVEAYEVSRLKHSIAIYRSRLCDISWFMRCLNEPIARQANQEDNCTGRFWEGRFKSQALLDEAAVLACMTYVDLNPIRAQLADTPEQSDHTSIQLRIRAALKGEQPSNLLPFIANECDNQPNGIAFSLMDYLQLVDDTGRIIRNDKRGYISESSAKILTRLNIPHDNWLKLTTDFGKLFHGPVGTLQELTDYCEHLEKRRRHFAASCQHFKSN	not soluble
MAHHHHHHMEEEKAGSSELVLAQESAWDKFGSKLKDMPFLNNFFENPILGKLFGETELAAALREMKMYDQNFKLSELMYLFEFVISKHIVESYLIGDEETLRVHCGQSAFNSLNASINERKKKKVYLDTNVLIYKNHELKGAQRMEESSPWFIFTFHTQQINCLKNANDEIIEGNIDDIREVVYTIALSKHPEPEREGLLYPYIVREFAIIGNTPSW	soluble
MPAFRMPPSTKVEYTSFGTKLSGAMKKIGLLSDTHGYIDEKYRIHFADCDEIWHAGDIGSVTVADYLSGLAPLRAVYGNIDGQDIRLQYPEVLRFCVEEVKVFMTHIGGYPGRYEPRIYRMLVQNPPRLFVCGHSHILKAMYDKKLDMLHLNPGAAGKYGFHAVRTLMRFVIDGRDIRDLQVIELADR	not soluble
MEIVDTRTPNSKRFISGVTGDWEVIIGMEVHAQIISNSKLFSGASTKFGAEPNNHVSLIDAAMPGMLPVLNQECVRQAVRTGLGLKARINLRSVFDRKNYFYPDLPQGYQISQFRYPIVGEGKIIISIGPDSNGQFEDIEVGIERLHLEQDAGKSMHDQHPTMSFVDLNRSGVALMEIVSKPDMRSADEAKAYMTKLRTIVRYLGTCDGNMDEGSMRADVNVSVRRPGESFGTRCEIKNVNSIRFIGQAIEYEARRQIAILEDGGVIDQETRLFDAAKGETRSMRSKEEAHDYRYFPDPDLLPLEFDQAFVDALAAELPELPDDIKIRFINEMGLTAYDASILVTEKAIANYFEKVAHGRDGKTVANWVINDLLGALNKDNREIEETPVSPDQLGSIIDLIKEGTISGKIAKDLFEIIWHEGGDPRQIVEERNMKQVTDTKAIERAVDEIMANNSDKVAQAKQKPALAGWFVGQVMKTTGGKANPQTVNELVKLKLGID	not soluble
MGDGISETIDAFHRGRFHIIQPKGRGHRAGMDAMLLASLVADDRACRIADLGAGAGAAGMAVAARLEKAEVTLYERSQEMAEFARRSLELPDNAAFSARIEVLEADVTLRAKARVEAGLPDEHFHHVIMNPPYNDAGDRRTPDALKAEAHAMTEGLFEDWIRTASAIMVSGGQLSLISRPQSVAEIIAACGSRFGGLEITLIHPRPGEDAVRMLVTAIKGSRARLTFRAPLIMHET	soluble
